3 molecules from patent publication US20230416326A1 (LETO LABORATORIES, published 2023) can be followed below.

In one assay the target is T1, IL2/15Rβ-Fc/Fc (UniProt P14784 27-240).
T1 construct: Made in-house; The label 'Fc/Fc' is not explained; it is read here as one receptor-Fc chain paired with an Fc-only chain; also called IL2Rβ; CD122; not shown: Fc; second Fc chain implied by the label 'Fc/Fc'
Description: BLI (Octet RED96), receptor immobilised on sensor. The procedure:
(§1) BLI was used to determine the affinity of a target protein for a receptor by a method with reference to (Estep, P et al., High throughput solution Based measurement of antibody-antigen affinity and epitope binning. MAbs, 2013.5 (2): p. 270-8). The receptor proteins IL-15Rα-his, IL2Rα-his, and IL2/15Rβ-Fc/Fc used in the experiment were each produced by the company of the present application, and both an IL-2 derivative without IL2Rα binding and an IL-2 complex without IL2Rα binding were prepared according to the description in Patent Publication CN111018961A. An IL-15(N72D)/Sushi-hIgG1Fc complex was prepared according to the literature (K.-p. Han et al./Cytokine 56 (2011) 804-810). A buffer was prepared according to the following formula: 10 mM HEPES, 150 mM NaCl, 3 mM EDTA, 0.1% BSA, and 0.05% tween20. Receptor proteins were each pre-immobilized in advance on a corresponding sensor. Then the steps of baseline, loading, baseline, association, and dissociation were conducted according to the established method (see Estep, P et al., High throughput solution Based measurement of antibody-antigen affinity and epitope binning. MAbs, 2013. 5 (2): p. 270-8). Data acquisition and analysis were conducted using the Fortebio Octet RED96 software Data acquisition 11.0 and Data analysis 11.0, respectively. Results are shown in Table 1 (the smaller the value, the stronger the affinity).
(In general: In BLI a coated tip is dipped into the sample, and binding shifts an interference pattern.)

A further assay addresses T2, IL-15Rα-his (Homo sapiens (Human), UniProt Q13261 31-205, limits assumed).
T2 construct: also called interleukin-15 receptor alpha; not shown: his tag
Description: BLI (Octet RED96), receptor immobilised on sensor. The protocol:
as §1

A further assay concerns the target T3, IL2Rα-his (UniProt P01589 22-240, limits assumed).
T3 construct: Made in-house; also called interleukin-2 receptor alpha; CD25; not shown: his tag
T3 sequence (looked up): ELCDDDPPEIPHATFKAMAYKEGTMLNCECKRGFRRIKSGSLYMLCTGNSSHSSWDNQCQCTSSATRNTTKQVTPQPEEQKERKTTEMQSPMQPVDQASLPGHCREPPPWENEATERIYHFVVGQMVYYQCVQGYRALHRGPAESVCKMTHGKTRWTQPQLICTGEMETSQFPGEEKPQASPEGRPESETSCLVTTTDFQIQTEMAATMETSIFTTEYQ
Description: BLI (Octet RED96), receptor immobilised on sensor. The protocol: as §1

The target of assay [1] is T4, IL-2/15R β and γ on Mo7e cells (UniProt P14784 27-551; P31785 23-369, limits assumed).
T4 sequence (looked up) 1: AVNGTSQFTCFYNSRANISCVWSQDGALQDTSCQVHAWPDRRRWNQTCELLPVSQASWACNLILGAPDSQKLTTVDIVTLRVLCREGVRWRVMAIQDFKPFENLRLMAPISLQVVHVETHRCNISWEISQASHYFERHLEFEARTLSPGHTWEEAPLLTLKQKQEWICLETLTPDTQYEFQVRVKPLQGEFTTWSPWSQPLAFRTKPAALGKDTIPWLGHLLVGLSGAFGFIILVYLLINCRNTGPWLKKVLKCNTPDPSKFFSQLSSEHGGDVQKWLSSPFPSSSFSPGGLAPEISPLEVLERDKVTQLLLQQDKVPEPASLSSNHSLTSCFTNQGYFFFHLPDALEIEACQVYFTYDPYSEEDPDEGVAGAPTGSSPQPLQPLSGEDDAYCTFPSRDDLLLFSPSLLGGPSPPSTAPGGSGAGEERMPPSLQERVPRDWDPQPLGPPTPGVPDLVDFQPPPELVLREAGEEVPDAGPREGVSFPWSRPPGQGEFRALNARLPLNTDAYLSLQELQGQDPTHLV
T4 sequence (looked up) 2: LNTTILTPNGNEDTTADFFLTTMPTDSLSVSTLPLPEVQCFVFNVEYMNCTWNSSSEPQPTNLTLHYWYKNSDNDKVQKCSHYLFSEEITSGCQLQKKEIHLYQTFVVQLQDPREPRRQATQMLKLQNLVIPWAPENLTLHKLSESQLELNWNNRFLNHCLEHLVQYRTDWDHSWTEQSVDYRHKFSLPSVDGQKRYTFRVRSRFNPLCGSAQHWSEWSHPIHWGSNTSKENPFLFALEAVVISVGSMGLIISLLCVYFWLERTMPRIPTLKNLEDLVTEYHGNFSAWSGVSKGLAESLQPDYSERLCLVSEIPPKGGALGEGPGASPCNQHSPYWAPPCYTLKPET
Description: cell-based or functional assay.

For another assay, the target named is T5, Sushi-hIgG4Fc.
T5 construct: IL15Rα Sushi domain fused to human IgG4 Fc; also called Sushi-Fc
Description: co-expression in HEK293, purification, SEC-HPLC. The protocol: The IL-2/15 chimera 1 was co-expressed with each of the Sushi-hIgG1Fc, Sushi-hIgG4Fc, and Sushi-mlgg2aa.1Fc, and heterodimer complexes could be generated during expression, which were respectively named as complex 1, complex 2, and complex 3 and all carried an Fc tag. Mabselect sure (Protein A, GE healthcare) was used for affinity purification, and a purification method was in accordance with instructions of a purification packing. Then further purification was conducted by gel filtration chromatography (GFC) (Superdex200 […], GE Healthcare) to obtain a protein with high purity, and the aggregate was removed. The purity analysis was conducted using a high-performance liquid chromatography (HPLC) molecular sieve column (SEC-HPLC), and the results are shown in FIGS. 1A-1C.
Background: SEC sorts molecules by how far they enter the pores of the column.

B1: Complex 3 (heterodimer complex of IL-2/15 chimera 1 and Sushi-mIgG2aa.1Fc) (Fc fusion)
chain 1: APTSSSTKKTQLQLEHLLLDLQMILNGIQSMHIDATLYTESDVHPSCKVTAMKCFLLELQVISLESGDASIHDTVENLIILANNSLSSNGNVTESGCKECEELEEKNIVEFLNRFITFAQSIISTLT
chain 2: ITCPPPMSVEHADIWVKSYSLYSRERYICNSGFKRKAGTSSLTECVLNKATNVAHWTTPSLKCIREPRGPTIKPCPPCKCPAPNAEGAPSVFIFPPKIKDVLMISLSPIVTCVVVDVSEDDPDVQISWFVNNVEVHTAQTQTHREDYNSTLRVVSALPIQHQDWMSGKEFKCKVNNKQLPSSIERTISKPKGSVRAPQVYVLPPPEEEMTKKQVTLTCMVTDFMPEDIYVEWTNNGKTELNYKNTEPVLDSDGSYFMYSKLRVEKKNWVERNSYSCSVVHEGLHNHHTTKSFSRTPGK
notes: also called IL-2/15 chimera 1-Sushi-Fc
Regarding B1, binding with IL2/15Rβ-Fc/Fc was characterised by a dissociation constant (Kd) of 0.512 nM. Further, the binding result with IL-15Rα-his and in the assay with IL2Rα-his was “no binding (tested: 100 nM)” in each case. Also, the “EC50 (nM), promotion of Mo7e cell proliferation” value in assay [1] came to 0.319 nM.

B2: IL-2/15 chimera 1 (ligand)
chain: APTSSSTKKTQLQLEHLLLDLQMILNGIQSMHIDATLYTESDVHPSCKVTAMKCFLLELQVISLESGDASIHDTVENLIILANNSLSSNGNVTESGCKECEELEEKNIVEFLNRFITFAQSIISTLT
notes: also called modified IL-2 molecule
Regarding B2, the Kd (commonly the constant that tells how readily two partners part at equilibrium) in the assay with IL2/15Rβ-Fc/Fc was 973 nM; with IL-15Rα-his, 3.89 nM. The binding result in the assay with IL2Rα-his is “no binding (tested: 100 nM)”. In addition, the “EC50 (nM), promotion of Mo7e cell proliferation” value in assay [1] turned out to be 2.25 nM.

B3: IL-2/15 chimera 2 (ligand)
chain: APTSSSTKKTQLQLEHLLLDLQMILNGIQSMHIDATLYTESDVHPSCKVTAMKCFLLELQVISLESGDASIHDTVENLIILANNSLSSNGNVTESGCKECEELEEKNIVEFLNRWITFAQSIISTLT
notes: Chimera 1 with F at position 115 mutated back to W; position 115 corresponds to position 121 of natural IL-2
As to B3, in the assay with Sushi-hIgG4Fc, the binding result is reported as “binds”.
